From the DeepSol protein solubility set

Experiment: soluble on expression in E. coli; label from the status in PepcDB or PDB records

Question: With “GCDLERYPLTDLSEETFWNSESNAELALTSLYRGSLTDGVEYNPSDWWSYHGMIMMEHLSDNAFDRRGENNPFFKISSGNLTADNAFIKRYWETSYKRIGYCNRFLVGIQNSSESEKKTRMIAEARFLRATQYFYLASYFKNVPLVENVLTGEEANNVTKTSQADILKWCVTEFTAAAADLPRFSAIPAGEAGRACKQAALAFLGRTCMLQKDWKSGAKAFHDIMELGDNAINANYQELFYPSTGTSNKENIFYIQYLENYLGTGLPQHALSAKDGGWSLVNPAADLYESYEFKDGTPFSYDDPRYDPSNLGKDRDPRLDYTIYYNGAIFMGTEYKMSPDYSAAKKEKLDYTSEASRTGFMMRKYFEESTPINDVQSANGLTPVIRYAEVLLGYLECLVEDNQTITQGILDETINAVRGRASVNMPPVTEVTPAKLREIVRHERRIELAMEGIRYWDIMRWGIAHEVLSQKIWGAPYPGSTQYATTTKEVDPTGNYRWYVGKRAFRNPTDYTWPIPQSEQNINPNLRD” as the sequence, how does the “soluble on expression in E. coli” value read?
Answer: soluble

Question: For “MGSDKIHHHHHHMTKSKISNPKLPMALQTSTIFSLQAPKDISLNEIDAELNQIWQSYGITGEDGGLPSATRATTFTLVVYEPEETQYLLAALGFYNGPIDGILGPQMAAALREVQKKHKLPETGTATQETLTILREEFAKGQRGGTGGEHAIAGLNSSSPRIADEIALRNPCRIIALFPITGEDEGVKAQVSAYCPIQKQSSSTLICCEYITLSGTAAALERIGGMIPALLIGGLPKFLWWKATPDPNNGLFKRLAAICNNVIVDSCNFNEPESDLLRLEELVEAGVPLADLNWRRLASWQELTAEAYDSPKRRAALREIDRVTIDYEKGNPAQALLFLGWLASRLEWQPVSYQKESGDYDITRIHFISQDQRQVEAELAGVPVADVGDIIGDLIALRLSSTNPQADCGTVICSETGGCMRMETHGGAQSAGLFQQVTSLSEQKAEALLSQQVQRWGRESLFEESLGVTANIFKLAN”, which “soluble on expression in E. coli” value is on record?
Answer: not soluble

Question: With “MSLAFNYDEYLRVDKMPTQWCWGCGDGVVLKCIIRAIEKLGWNMDDVCLVSGIGCSGRMSSYVNCNTVHTTHGRAIAYATGIKLANPSKHVIVVSGDGDTLAIGGNHTIHGCRRNIDLTHIVINNFIYGLTNSQTSPTTPKGFYTVTAQFGNIDPNFDACELTKAAGASFVARGNVIEANKLENLIYKALAHKGYSFVDVFSNCHINLGRKNKMGEAVAMLDWIKNRVVDKAKFESMDFEERKDKFPTGILHEDNSQPEYCHAYEEVRRAAKEKRMVDLGALKEGHHHHHH” as the sequence, how does the “soluble on expression in E. coli” value read?
Answer: not soluble

Question: With “MAEGVADRIIGLYSLGNSTREISDWLKENLGNRVSDETISSITDRVLPEIKVWRSRILDDVYSIVWINAIHYKVTDERGCTVTRAIYNVLGIDKEGHKDLLGMYISKNEGANFWLNVLTDLQNRGVHDILIAYVDGLKGWMPPKVFFRTQYYNFVSSTRYGTPLNMSVVSIRRNSSKT” as the sequence, how does the “soluble on expression in E. coli” value read?
Answer: not soluble

Question: Which “soluble on expression in E. coli” value does the source give for “MSRTYDLASDVIRRVYERRIDAPAILDSASEFPNAAKFTNAWRDIRDEALGVHLGKVPRFHDIMPEQADISANDGLDWRMFVLKAYDMAVPENLARMPVLSRLLAECPEVKSAAISFLAPRKHIPSHRGPFRGIMRFHLGLVIPRQADGRPATIMMIDHQEKRITDGEGMLWDDTYPHEVMNNADETRIALLLDVWRPGMPWDMEMLSRLIVRGVQAGMRRRGVSFSGLEHHHHHH” here?
Answer: soluble

Question: With “MGSDKIHHHHHHMIRDNIMSQIDLPTDFDFQQAGRQVLEIEREGLAQLDQYINEDFTHACETIFRCGGKVVVMGMGKSGHIGRKMAATFASTGTSAFFVHPGEAAHGDLGMVTPQDVVIALSNSGESNEILALIPVLKRQQVKLICITSRPESSMARAADIHLCVKVPKEACPLGLAPTSSTTAALVMGDALAVALLEARGFTAEDFALSHPGGALGRKLLLRVNDIMHTGDEIPHVGLQATLRDALLEITRKNLGMTAICDDDMNIIGIFTDGDLRRVFDTGVDMRDASIADVMTRGGIRIRPGTLAVDALNLMQSRHITCVLVADGDHLLGVVHMHDLLRAGVV” as the sequence, how does the “soluble on expression in E. coli” value read?
Answer: not soluble

Question: For “MHHHHHHMGLNTAIATRVNGTPPPEVPIADIELGSLDFWALDDDVRDGAFATLRREAPISFWPTIELPGFVAGNGHWALTKYDDVFYASRHPDIFSSYPNITINDQTPELAEYFGSMIVLDDPRHQRLRSIVSRAFTPKVVARIEAAVRDRAHRLVSSMIANNPDRQADLVSELAGPLPLQIICDMMGIPKADHQRIFHWTNVILGFGDPDLATDFDEFMQVSADIGAYATALAEDRRVNHHDDLTSSLVEAEVDGERLSSREIASFFILLVVAGNETTRNAITHGVLALSRYPEQRDRWWSDFDGLAPTAVEEIVRWASPVVYMRRTLTQDIELRGTKMAAGDKVSLWYCSANRDESKFADPWTFDLARNPNPHLGFGGGGAHFCLGANLARREIRVAFDELRRQMPDVVATEEPARLLSQFIHGIKTLPVTWS”, which “soluble on expression in E. coli” value is on record?
Answer: soluble

Question: For “WLSRSERYIPMMREVLRKEGLPEDLVYLAMIESGFTPHAVSVASAVGPWQFISGTGKRYDLRIDQWIDERRDPLKSTVAAAMYLKELYSLFNQDWYLAAAGYNAGENKILRAIDKYNTRDFWEISKGSYLKRETKDYVPKLLAAAIIAKEPARYGFADVAYLPPIEFD”, which “soluble on expression in E. coli” value is on record?
Answer: not soluble

Question: Which “soluble on expression in E. coli” value does the source give for “MSADYSSEKFKATHLFDEILWHFRSNLSLKTNRRGLATAENSFSGKEAVDFLMIEMPRIIPNNVPERDKMQKFLEFMMDMNVISEAFPKKVKQRRPFSESRIYLFMKTLDELKHPKPRSRRSASFSGARKSAKVAQPASPAATMHRPPKARLPRRLSRSNGNIDKAGIDNSSGGVENHGFDDHKDDEIPKKQRTPKILNRSLESICTEEYTEKREVSEMKEKVYDWLPFFKSRRNHTKVNQPTRRSASLDRNHCVLEQEKAEAALRSQKVTTPPIREAPKDVVFMHPQGPLPAVPSRYQNHRTSIAGSNPALLSRGRMYESIMRRSSVVPVADSVQANNECSFWKTELLGRLEQIYDRTLPCEWASKVDGYDIQWNMIEIDHADGIVKSRCQGLQPDYPQTVIQFMDYLVRYPFVTHKKMDTGLEYNVNRIFITLVNRLEDLNAPLQFDECSLIVNLLCKIDSFAAMLDNGPARRWSKVMISSSASSIEEAGLMVDGFSRDLPACGIRASKYRRRALSPFDNRVNLEIQDEKSYEIREQWLIEAIQLVLLSLPTSRRRKLHKFVTFIQSIETNAVFDLADPSNGSSNNREAAIIGLWTGVCSKCRKQQGMLITAVLLANFQSLFAVPVEFIEQVKRLECEEKDRYSGPRYAKITRSRNDWQPPVPDKPQASPAVFKKPLREVACEKTKKGLFTRLLRK” here?
Answer: not soluble

Question: With “MLFKTIFYQKLQKKVTTLFNLETERVIREIENLNKNNPKVIFQAPEGLKLKVEKEIEKIKQYFKQKNINIEIYLWGNTCFGACDLIDNHVKNLNVDLIIHYGHEKLSYANPEIKTLFIPAYHIFNKDEEEKILNDIKNFIEKHKSGGKKVAIATTIQYKKLLKDFNPSIILGCRGEVKEGDVILFVGTGRFHPLMIAYKYQKEVFIYNPLSKCFDKISEEEINKFIKKRILAISKLLLNKPKKVGVVLSTKKGQCRKRVFDEIIKLLEENDVNYLPILVDNISPDILFYDVDCYIIVACPRIVLDDYILYKKPIYTPEEFKLFLKNSFKYKFDEIKEDDFLEHHHHHH” as the sequence, how does the “soluble on expression in E. coli” value read?
Answer: soluble

Question: For “TLEPTQSVQNYMIQADSTEGSLQNDWLIMATKAAIQANQLDQADLLIKRLARQQLTEVQQAEWQLARATIQQKQGDYSQLLQLLNFKPWWKLPNEQWKDYYSLRADAYQSLNQPFEANRQLVAFSQYASSAEQREISSRIWMNFGSYSEYELTSLQTEPSEDVLDGWLQLAVYAKTLSGNLSQLKNTLERWLNENPSHPAAIYTPEEIQNILSLDIVKPNNTALLLPLTGKFAPQAQLIRDGFVFAMMNDRNRDPSATLTVIDTNAYSADEVKQRLINENIDFVVGPLQKENVELLQTTMDGSANSPAIPALALNIPEDVQPGTDICYLALSPEQEVAQAAKYLFSEGYSFPLILAPKGSYGERVVQAFNEEWSKYSSNKVATSYFGDKRQLQKDINDVFGLQESKQRIAQMQSLMRIKLETQPRSRRDVDAVYIVARSSELTLIKPFIEVAINPDAKPPKLFSNSRSNSGGATYEDLTGIIYSDIPLLVNPDPIVTAEMNELWADQSNMEKRLKALGMDAYKLIGELPQMKVVPGYSVSGQTGTLSIDNNCVVQRELSWAERGAL”, which “soluble on expression in E. coli” value is on record?
Answer: not soluble

Question: For “MAHHHHHHMPTYVGKEAPFFKAEAVFGDNSFGEVNLTQFIGKKYVLLYFYPLDFTFVCPSEIIALDKALDAFHERNVELLGCSVDSKYTHLAWKKTPLAKGGIGNIKHTLLSDITKSISKDYNVLFDDSVSLRAFVLIDMNGIVQHLLVNNLAIGRSVDEILRIIDAIQHHEKYGDVCPANWQKGKVSMKPSEEGVAQYLSTL”, which “soluble on expression in E. coli” value is on record?
Answer: not soluble
